Laboratory results from article PMC2199741.

Target: biotinylated peptide comprising the NH2-terminal 73 amino acids of GM130 (N73pep) (UniProt Q62839)
Experiment: pull-down

B1: p115, vesicle tethering protein (natural protein)
chain: MNFLRGVMGGQSAGPQHTEAETIQKLCDRVASSTLLDDRRNAVRALKSLSKKYRLEVGIQAMEHLIHVLQTDRSDSEIIAYALDTLYNIISNDEEEEVEENSTRQSEDLGSQFTEIFIKQPENVTLLLSLLEEFDFHVRWPGVRLLTSLLKQLGPPVQQIILVSPMGVSKLMDLLADSREIIRNDGVLLLQALTRSNGAIQKIVAFENAFERLLDIITEEGNSDGGIVVEDCLILLQNLLKNNNSNQNFFKEGSYIQRMKAWFEVGDENPGWSAQKVTNLHLMLQLVRVLVSPTNPPGATSSCQKAMFQCGLLQQLCTILMATGIPADILTETINTVSEVIRGCQVNQDYFASVNAPSNPPRPAIVVLLMSMVNERQPFVLRCAVLYCFQCFLYKNEKGQGEIVATLLPSTIDATGNSVSAGQLLCGGLFSTDSLSNWCAAVALAHALQGNATQKEQLLRVQLATSIGNPPVSLLQQCTNILSQGSKIQTRVGLLMLLCTWLSNCPIAVTHFLHNSANVPFLTGQIAENLGEEEQLVQGLCALLLGISIYFNDNSLENYTKEKLKQLIEKRIGKENYIEKLGFISKHELYSRASQKPQPNFPSPEYMIFDHEFTKLVKELEGVITKAIYKSSEEDKKEEEVKKTLEQHDNIVTHYKNMIREQDLQLEELKQQVSTLKCQNEQLQTAVTQQASQIQQHKDQYNLLKVQLGKDNHHQGSHSDGAQVNGIQPEEISRLREEIEELRSHQVLLQSQLAEKDTVIENLRSSQVSGMSEQALATCSPRDAEQVAELKQELSALKSQLCSQSLEITRLQTENSELQQRAETLAKSVPVEGESELVTAAKTTDVEGRLSALLQETKELKNEIKALSEERTAIQKQLDSSNSTIAILQTEKDKLYLEVTDSKKEQDDLLVLLADQDQKILSLKSKLKDLGHPVEEEDESGDQEDDDDELDDGDRDQDI
percent of p115 depleted from cytosol: > 95%
